Literature values as cited in paper PMC2847397.

Target: Asp408 (UniProt position 408, GLLVDDAIVVV)
Assay: chemical modification

Multidrug efflux pump subunit AcrB (RND transporter) (Escherichia coli)
pKa: 7.4
